The RNAGym collection of RNA variant scans (doi:10.7554/elife.80360)

B1: HDV Ribozyme (parent)
chain: GGCCGGCAUGGUCCCAGCCUCCUCGCUGGCGCCGGCUGGGCAACAUUCCGAGGGGACCGUCCCCUCGGUAAUGGCGAAUGGGACCCA

Variants of: B1
Assay: self-cleavage, relative activity (ratio to wild type); higher = more cleavage; co-transcriptional

Row | Variant | self-cleavage
1 | U37C A78U | 0.161
2 | U37C A83G | 0.76
3 | U37C A87U | 1.14
4 | U37C C41G | 1.11
5 | U37C C48U | 1.14
6 | U37C C49G | 1.21
7 | U37C C57G | 1.1
8 | U37C C61A | 1.2
9 | U37C C61G | 0.816
10 | U37C C62G | 0.0723
11 | U37C C62U | 1.26
12 | U37C C64A | 0.831
13 | U37C C66G | 0.932
14 | U37C C86G | 0.956
15 | U37C C86U | 1.06
16 | U37C G38C | 0.237
17 | U37C G39A | 0.0997
18 | U37C G39C | 0.177
19 | U37C G55A | 1
20 | U37C G67C | 0.989
21 | U37C G67U | 0.974
22 | U37C G68A | 0.864
23 | U37C G74A | 0.196
24 | U37C G76U | 1.3

Row | Variant | self-cleavage
25 | U37C G80A | 0.267
26 | U37C G80C | 0.288
27 | U37C G82A | 0.173
28 | U37C G82C | 0.268
29 | U37C G82U | 0.399
30 | U37C U47A | 0.864
31 | U37C U65G | 0.906
32 | U37C U69C | 0.89
33 | U37C U79C | 0.193
34 | U37G | 0.131
35 | U37G A42C | 0.308
36 | U37G A42U | 0
37 | U37G A45C | 0
38 | U37G A56G | 0.0665
39 | U37G A77U | 0.138
40 | U37G A78G | 0
41 | U37G C48G | 0.111
42 | U37G C57G | 0.145
43 | U37G C61A | 0.0875
44 | U37G C61G | 0
45 | U37G C62G | 0.0791
46 | U37G C63A | 0.123
47 | U37G C64U | 0
48 | U37G C66U | 0.196

Row | Variant | self-cleavage
49 | U37G C84U | 0.111
50 | U37G C85G | 0.201
51 | U37G G38A | 0.111
52 | U37G G38U | 0.155
53 | U37G G39A | 0.0811
54 | U37G G53C | 0.145
55 | U37G G54C | 0.0594
56 | U37G G54U | 0.135
57 | U37G G59A | 0
58 | U37G G59U | 0.256
59 | U37G G67A | 0.0692
60 | U37G G73U | 0.0923
61 | U37G G74A | 0.229
62 | U37G G76A | 0.185
63 | U37G G82A | 0.158
64 | U37G U47G | 0
65 | U37G U60C | 0.256
66 | U37G U65A | 0.101
67 | G38A A43U | 0.111
68 | G38A A70C | 0.177
69 | G38A A70U | 0.148
70 | G38A A71U | 0.102
71 | G38A A83C | 0.151
72 | G38A A83G | 0.142

Row | Variant | self-cleavage
73 | G38A C44G | 0.0449
74 | G38A C48G | 0.148
75 | G38A C49U | 0.119
76 | G38A C61G | 0.138
77 | G38A C62G | 0.298
78 | G38A C62U | 0.153
79 | G38A C63U | 0.0923
80 | G38A C64A | 0.0678
81 | G38A C64U | 0.225
82 | G38A C66A | 0.0992
83 | G38A C75A | 0.115
84 | G38A C84G | 0.257
85 | G38A C84U | 0.109
86 | G38A C85A | 0.104
87 | G38A C85U | 0.128
88 | G38A G39U | 0.0665
89 | G38A G53A | 0.113
90 | G38A G59A | 0.0801
91 | G38A G67A | 0.0665
92 | G38A G67U | 0.135
93 | G38A G68C | 0.197
94 | G38A G68U | 0.18
95 | G38A G80C | 0.117
96 | G38A U46C | 0.138

Row | Variant | self-cleavage
97 | G38A U47A | 0.0594
98 | G38A U47G | 0.116
99 | G38A U65C | 0.117
100 | G38A U65G | 0.181
101 | G38A U69C | 0.31
102 | G38A U79C | 0.161
103 | G38C A42G | 0.0449
104 | G38C A43C | 0.26
105 | G38C A70G | 0.0978
106 | G38C A71G | 0.166
107 | G38C A71U | 0.0449
108 | G38C A77C | 0.177
109 | G38C A77U | 0.128
110 | G38C A78G | 0.0639
111 | G38C C41A | 0.612
112 | G38C C41U | 1.08
113 | G38C C44U | 0.104
114 | G38C C49G | 0.156
115 | G38C C57A | 0.102
116 | G38C C61A | 0.218
117 | G38C C61G | 0.219
118 | G38C C62U | 0.197
119 | G38C C64U | 0.369
120 | G38C C75U | 0.0297

Row | Variant | self-cleavage
121 | G38C C84U | 0.158
122 | G38C C85U | 0.185
123 | G38C G39C | 0.0426
124 | G38C G50A | 0.188
125 | G38C G50U | 0.157
126 | G38C G52A | 0.322
127 | G38C G53A | 0.313
128 | G38C G53C | 0.295
129 | G38C G55U | 0.193
130 | G38C G73C | 0.284
131 | G38C G74C | 0.148
132 | G38C U47C | 0.161
133 | G38C U65C | 0.391
134 | G38C U65G | 0.142
135 | G38C U72C | 0.341
136 | G38C U79C | 0.0264
137 | G38U A43G | 0.208
138 | G38U A45G | 0.0426
139 | G38U A45U | 0.158
140 | G38U A51C | 0.246
141 | G38U A51G | 0.32
142 | G38U A56G | 0.193
143 | G38U A56U | 0.273
144 | G38U A71C | 0.225

Row | Variant | self-cleavage
145 | G38U A77C | 0.0554
146 | G38U A77U | 0.0845
147 | G38U C41G | 0.325
148 | G38U C44G | 0.0652
149 | G38U C48G | 0.156
150 | G38U C49U | 0.172
151 | G38U C61G | 0.086
152 | G38U C66A | 0.185
153 | G38U C84A | 0.174
154 | G38U C85A | 0.205
155 | G38U C86G | 0.0573
156 | G38U G39U | 0.0573
157 | G38U G50A | 0.218
158 | G38U G50U | 0.352
159 | G38U G52C | 0.169
160 | G38U G52U | 0.273
161 | G38U G59A | 0.181
162 | G38U G59C | 0.264
163 | G38U G68C | 0.245
164 | G38U G74C | 0.115
165 | G38U G74U | 0.14
166 | G38U G76U | 0.237
167 | G38U U47C | 0.133
